{"source": "patent US20220089772A1", "about": "(published 2022)", "binders": {"B1": {"name": "monoclonal antibody GO2 (5F7) (antibody, V domains shown)", "VH": "QVQLQQSDAELVKPGASVKISCKASGYTFTDHAIHWVKQRPEQGLEWIGYFSPGNDDIHYNEKFEGKATLTADKSSSTAYMQLNSLTSEDSAVYFCKRSYDKDFDCWGQGTTLTVSS", "VL": "DIVMSQSPSSLGVSVGEKVTMSCKSSQSLLYSTNQKNYLAWYQQKPGQSPKLLIYWVSNRKSGVPDRFTGSGSGTDFTLTISSVKAEDLAVYYCQQYYRYPLTFGAGTKLELK"}}, "key": {"[1]": {"target": "T1, Human glycopeptide (biotinylated) (biotinylated; glycosylated (glycan and sites not stated))", "T1 peptide": "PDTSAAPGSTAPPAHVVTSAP", "test": "SPR; avid; apparent KD, FIG. 19A"}, "[2]": {"target": "T2, Cynomolgus glycopeptide (biotinylated) (biotinylated; glycosylated (glycan and sites not stated))", "T2 peptide": "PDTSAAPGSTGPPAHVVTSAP", "test": "SPR; avid; apparent KD, FIG. 19B"}}}
{"binder": "B1", "values": [{"measurement": "Kd", "setting": "[1]", "value": 253, "unit": "nM"}, {"measurement": "Kd", "setting": "[2]", "value": 56, "unit": "nM"}]}
